Assay results taken from the supplement of paper PMC9732359.
± gives the uncertainty stated by the source.

Assay: protein stability index of a GFP-peptide fusion (yeast GPS) (PSI 1-4); higher = more stable; sorted into four equal gates, so the index is relative within each strain
How it was run: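 Tiled 17-residue yeast protein peptides were fused downstream of GFP in a plasmid that also expresses Cherry, and the pooled library was carried in yeast. Mid-log cultures in leucine-free medium were sorted into four equal gates by GFP/Cherry fluorescence ratio, and plasmids from each gate were PCR-amplified and Illumina-sequenced, with reads assigned to strains by barcodes. The protein stability index for each peptide was each gate's read frequency times its gate number, summed.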

Row | Sequence | protein stability index (doa10∆) | protein stability index (pdr5∆) | protein stability index (san1∆) | protein stability index (ubr1∆)
1 | DEAKDFIVSGTASDQLF [PUP3] | 2.74 ± 0.089 | 2.83 ± 0.07 | 2.57 ± 0.096 | 2.92 ± 0.076
2 | LMEFLCVVSTDSTNLSD [ECM29] | 1.92 ± 0.059 | 1.65 ± 0.056 | 1.84 ± 0.094 | 1.72 ± 0.063
3 | ETSSFGSMFSGDNTSDV [RRI1] | 3.48 ± 0.11 | 3.08 ± 0.13 | 3.25 ± 0.063 | 2.66 ± 0.15
4 | QLVEITEQIKMRILSND [SRB8] | 2.49 ± 0.045 | 2.45 ± 0.043 | 2.44 ± 0.043 | 2.48 ± 0.034
5 | INHTILGKLQDVFNLLP [RPN8] | 3.16 ± 0.066 | 3.17 ± 0.081 | 2.84 ± 0.048 | 2.96 ± 0.046
6 | ISAEDRADTDLAMNDDD [SNF2] | 3.44 ± 0.23 | 3.45 ± 0.14 | 3.35 ± 0.069 | 3.32 ± 0.085
7 | GDYVAYQLNGVAPFMIK [YMR129W/POM152] | 1.53 ± 0.075 | 1.49 ± 0.08 | 1.66 ± 0.17 | 1.84 ± 0.059
8 | QGGAMNKKSEQALDISK [SRP72] | 3.07 ± 0.067 | 3.12 ± 0.058 | 3 ± 0.043 | 3.07 ± 0.063
9 | GTAGGNTFGSSSLFNNS [YJL041W/NSP1] | 3.2 ± 0.073 | 3.09 ± 0.06 | 3.12 ± 0.055 | 3.21 ± 0.059
10 | ALRRRVGPSEQNFAEED [REC8] | 3.37 ± 0.12 | 3.51 ± 0.15 | 3.39 ± 0.11 | 3.24 ± 0.098
11 | AIMSKSSLEELLLKDQQ [ECM29] | 2.83 ± 0.09 | 2.93 ± 0.073 | 2.83 ± 0.1 | 2.98 ± 0.05
12 | NKEKSNSPTSFFDGSAS [YOR098C/NUP1] | 3.1 ± 0.068 | 3.07 ± 0.057 | 3.02 ± 0.041 | 2.95 ± 0.081
13 | LPENIILTSLMRSKLEK [CSN9] | 2.38 ± 0.084 | 3.05 ± 0.063 | 2.78 ± 0.061 | 2.7 ± 0.048
14 | AQAQAQAQAQAQAQAQA [GAL11] | 2.95 ± 0.03 | 3.23 ± 0.035 | 2.98 ± 0.026 | 3.09 ± 0.033
15 | FNFGGKSDTVTSASQPF [YOR098C/NUP1] | 2.21 ± 0.056 | 2.03 ± 0.056 | 2.07 ± 0.071 | 1.93 ± 0.049
16 | MSLINDAMVTRTPVIIS [SMD2] | 1.26 ± 0.07 | 1.7 ± 0.066 | 1.47 ± 0.12 | 1.52 ± 0.085
17 | DRELNEVINQMERLDGD [SMC3] | 3.13 ± 0.086 | 3.29 ± 0.083 | 3.2 ± 0.08 | 3.1 ± 0.045
18 | VACLFITISIHGKPTKG [SSN8] | 1.19 ± 0.061 | 1.24 ± 0.061 | 1.28 ± 0.16 | 1.5 ± 0.11
19 | AKDKEIYNKMIGVLNNS [RPN13] | 2.6 ± 0.084 | 2.94 ± 0.1 | 2.72 ± 0.053 | 2.93 ± 0.065
20 | MLTIARLGFFYNDQLYV [RPN7] | 2.13 ± 0.093 | 1.66 ± 0.19 | 1.47 ± 0.29 | 2.2 ± 0.19
21 | VFGISKTSSGSYNYVEN [ITC1] | 3.33 ± 0.083 | 3.12 ± 0.073 | 3.17 ± 0.06 | 3.28 ± 0.041
22 | LADWRIRPLSKPMTAYA [RRP6] | 2.82 ± 0.13 | 3.15 ± 0.13 | 2.7 ± 0.19 | 2.98 ± 0.088
23 | HPGFGCWLSSVDVNTQK [RPN11] | 1.25 ± 0.23 | 1.25 ± 0.24 | – | –
24 | MSVEPVVVIDGKGHLVG [RPL16A] | 3.13 ± 0.15 | 3.42 ± 0.19 | 2.63 ± 0.11 | 3.1 ± 0.089
25 | DAAAEKRNGDEVYTLVD [ARP7] | 3.28 ± 0.074 | 3.35 ± 0.063 | 3.42 ± 0.046 | 3.06 ± 0.056
26 | KIFQTTPEKDLFIGLFT [YCS4] | 2.1 ± 0.088 | 1.84 ± 0.055 | 2.41 ± 0.11 | 2.58 ± 0.066
27 | MTVTFLILAGQVKVKGQ [YCS4] | 2.34 ± 0.083 | 2.27 ± 0.074 | 2.3 ± 0.086 | 1.83 ± 0.057
28 | KYPMYMQLEEELMKLDG [MED6] | 2.14 ± 0.091 | 1.44 ± 0.084 | 1.39 ± 0.16 | 1.36 ± 0.06

Row | Sequence | protein stability index (doa10∆) | protein stability index (pdr5∆) | protein stability index (san1∆) | protein stability index (ubr1∆)
29 | DVILDYQTKKFYDYIKE [REC8] | 2.4 ± 0.06 | 2.58 ± 0.052 | 2.55 ± 0.071 | 2.92 ± 0.051
30 | LSDIETAVNGIDTDLFG [YGL172W/NUP49] | 3.11 ± 0.079 | 3.16 ± 0.086 | 3.2 ± 0.062 | 3.19 ± 0.055
31 | MASLPHPKIVKKHTKKF [RPL32] | 2.41 ± 0.088 | 2.97 ± 0.093 | 2.22 ± 0.088 | 2.83 ± 0.075
32 | QKKNFLFKPLNKTLTLD [ARP7] | 2.83 ± 0.093 | 2.45 ± 0.14 | 2.08 ± 0.25 | 1.89 ± 0.26
33 | FMNDAAADVSAVDAKQL [YML103C/NUP188] | 2.52 ± 0.095 | 2.54 ± 0.099 | 3.06 ± 0.091 | 2.21 ± 0.081
34 | KETIARVTGGMKVKADR [RPS14A] | 3.29 ± 0.11 | 3.13 ± 0.12 | 3.31 ± 0.062 | 3.27 ± 0.073
35 | LIFGTIASKMSLAPEAD [RPT3] | 2.66 ± 0.044 | 2.78 ± 0.064 | 2.75 ± 0.041 | 2.65 ± 0.038
36 | RLNPYAKVFAAEKLGSK [RPL4A] | 2.09 ± 0.14 | – | – | –
37 | VNDTVKIDLASGKITDF [RPS4A] | 3.07 ± 0.12 | 3.17 ± 0.1 | 3.26 ± 0.12 | 2.71 ± 0.15
38 | RLLAKDAMIAQRSKKIQ [DIS3] | 1.24 ± 0.1 | 1.92 ± 0.091 | 1.41 ± 0.072 | 1.59 ± 0.069
39 | EFNSIDRVIFRVPIRSE [PRP8] | 3.32 ± 0.089 | 3.33 ± 0.097 | 3.21 ± 0.13 | 3.11 ± 0.046
40 | KMVIAELLPHYPFVTND [YJR042W/NUP85] | 2.83 ± 0.09 | 2.75 ± 0.092 | 2.87 ± 0.052 | 2.99 ± 0.073
41 | VDDAIELALKTLSKTTD [PRE9] | 2.43 ± 0.066 | 1.92 ± 0.063 | 2.42 ± 0.074 | 2.64 ± 0.057
42 | SMIEKGGDWERRNRYKT [RPN7] | 3.01 ± 0.14 | 3.43 ± 0.22 | – | –
43 | VVEISNGNTSSKTVVTL [FAS1] | 3.11 ± 0.06 | 3.18 ± 0.05 | 3.28 ± 0.072 | 3.26 ± 0.06
44 | KLQLSFVLQMVGKTAQS [SRP72] | – | – | 1.42 ± 0.16 | –
45 | TPNVREEKQKSYKFPRG [PUP1] | 3.29 ± 0.13 | 2.74 ± 0.12 | 3.13 ± 0.095 | –
46 | PHTTLVNECIAQSHQRF [CDC53] | 2.79 ± 0.066 | 2.92 ± 0.052 | 2.85 ± 0.055 | 2.98 ± 0.039
47 | SKNRIIVEADEKKGIVQ [RET1] | 1.21 ± 0.14 | 1.47 ± 0.061 | – | 1.59 ± 0.077
48 | PLINRLKHYNGYDINYI [SWI1] | 2.41 ± 0.068 | 2.57 ± 0.051 | 2.76 ± 0.065 | 2.69 ± 0.043
49 | LAINAKTITSGLKYALA [RPB2] | 2.65 ± 0.057 | 2.83 ± 0.073 | 2.4 ± 0.061 | 2.79 ± 0.044
50 | SSLEELLLKDQQTAKKL [ECM29] | 2.82 ± 0.091 | 2.99 ± 0.077 | 2.92 ± 0.1 | 2.95 ± 0.058
51 | YIQRRLVKALEDIMVHY [RPO21] | 1.77 ± 0.049 | 2.11 ± 0.051 | 1.4 ± 0.075 | 2.05 ± 0.055
52 | LADSLDRCVDPEDPYFN [DIS3] | 3.05 ± 0.095 | 2.64 ± 0.079 | 3.35 ± 0.076 | 3.4 ± 0.059
53 | LDQVGVPKSIAKTLTYP [RPO21] | 2.74 ± 0.064 | 2.83 ± 0.051 | 2.65 ± 0.043 | 2.99 ± 0.06
54 | PGVLPVGIDTHTATDIY [SNF2] | 2.96 ± 0.066 | 3.04 ± 0.064 | 2.77 ± 0.045 | 2.69 ± 0.04
55 | EIMQQKFPATNVTTILD [ECM29] | 2.41 ± 0.061 | 2.47 ± 0.055 | 2.19 ± 0.063 | 2.45 ± 0.057
